Test results as given in PMC10786891, “Massively parallel profiling of RNA-targeting CRISPR-Cas13d”.
Changes are numbered by the printed parent chain. Names and notes keep the numbering of the source.

B1: target 2 MT 5'PFS GGU 3'PFS AAG (mixed)
RNA 1: CACCCGUGCAAAAUUGCAGGGGUCUAAAACCUUCUCCAAAUUGUUUCAUCCU
RNA 2: GGGAAUGGAUCCACAUCUACGAAUUCGGUAGGAUGAAACAAUUUGGAGAAGAAGAGAUCGGAAGAGCACACGU
B2: target 2 MT 5'PFS GGU 3'PFS AAA (mixed)
RNA 1: B1 RNA 1
RNA 2: B1 RNA 2 with G54A
B3: target 2 MT 5'PFS UCA 3'PFS AAU (mixed)
RNA 1: B1 RNA 1
RNA 2: B1 RNA 2 with G27U, G28C, U29A, G54U
B4: target 2 MT 5'PFS GGU 3'PFS AAC (mixed)
RNA 1: B1 RNA 1
RNA 2: B1 RNA 2 with G54C
B5: target 2 MT 5'PFS UCU 3'PFS CAG (mixed)
RNA 1: B1 RNA 1
RNA 2: B1 RNA 2 with G27U, G28C, A52C
B6: target 2 MT 5'PFS AGG 3'PFS AAC (mixed)
RNA 1: B1 RNA 1
RNA 2: B1 RNA 2 with G27A, U29G, G54C
B7: target 2 MT 5'PFS UCU 3'PFS CAA (mixed)
RNA 1: B1 RNA 1
RNA 2: B1 RNA 2 with G27U, G28C, A52C, G54A
B8: target 1 A20C,C22U (mixed)
RNA 1: CACCCGUGCAAAAAUGCAGGGGUCUAAAACUGAGCGGAUAACCUCUCUAUGG
RNA 2: GGGAAUGGAUCCACAUCUACGAAUUCGUAUCCUAGAGAGGUUAUCCGCUCACCGAGAUCGGAAGAGCACACGU
B9: target 2 MT 5'PFS CGG 3'PFS AGC (mixed)
RNA 1: B1 RNA 1
RNA 2: B1 RNA 2 with G27C, U29G, A53G, G54C
B10: target 2 MT 5'PFS CGG 3'PFS AGA (mixed)
RNA 1: B1 RNA 1
RNA 2: B1 RNA 2 with G27C, U29G, A53G, G54A
B11: target 2 MT 5'PFS CGG 3'PFS AGG (mixed)
RNA 1: B1 RNA 1
RNA 2: B1 RNA 2 with G27C, U29G, A53G
B12: target 2 MT 5'PFS AGG 3'PFS AAU (mixed)
RNA 1: B1 RNA 1
RNA 2: B1 RNA 2 with G27A, U29G, G54U
B13: target 2 MT 5'PFS UGG 3'PFS CCU (mixed)
RNA 1: B1 RNA 1
RNA 2: B1 RNA 2 with G27U, U29G, A52C, A53C, G54U
B14: target 2 MT 5'PFS CAC 3'PFS UCA (mixed)
RNA 1: B1 RNA 1
RNA 2: B1 RNA 2 with G27C, G28A, U29C, A52U, A53C, G54A
B15: target 2 MT 5'PFS CAC 3'PFS UCC (mixed)
RNA 1: B1 RNA 1
RNA 2: B1 RNA 2 with G27C, G28A, U29C, A52U, A53C, G54C
B16: target 2 MT 5'PFS CAC 3'PFS UCG (mixed)
RNA 1: B1 RNA 1
RNA 2: B1 RNA 2 with G27C, G28A, U29C, A52U, A53C
B17: target 2 MT 5'PFS AGG 3'PFS UAC (mixed)
RNA 1: B1 RNA 1
RNA 2: B1 RNA 2 with G27A, U29G, A52U, G54C
B18: target 2 MT 5'PFS CAC 3'PFS UCU (mixed)
RNA 1: B1 RNA 1
RNA 2: B1 RNA 2 with G27C, G28A, U29C, A52U, A53C, G54U
B19: target 1 insG 3' of 7,insG 3' of 2 (mixed)
RNA 1: B8 RNA 1
RNA 2: GGGAAUGGAUCCACAUCUACGAAUUCGUACCAUAGAGAGGUUAUCGCGCUCGACCGAGAUCGGAAGAGCACACGU
B20: target 2 MT 5'PFS GCU 3'PFS CUC (mixed)
RNA 1: B1 RNA 1
RNA 2: B1 RNA 2 with G28C, A52C, A53U, G54C
B21: target 2 MT 5'PFS UAG 3'PFS UUU (mixed)
RNA 1: B1 RNA 1
RNA 2: B1 RNA 2 with G27U, G28A, U29G, A52U, A53U, G54U
B22: target 2 MT 5'PFS UGG 3'PFS CCA (mixed)
RNA 1: B1 RNA 1
RNA 2: B1 RNA 2 with G27U, U29G, A52C, A53C, G54A
B23: target 2 MT 5'PFS UAG 3'PFS UCG (mixed)
RNA 1: B1 RNA 1
RNA 2: B1 RNA 2 with G27U, G28A, U29G, A52U, A53C
B24: target 2 MT 5'PFS CUC 3'PFS ACG (mixed)
RNA 1: B1 RNA 1
RNA 2: B1 RNA 2 with G27C, G28U, U29C, A53C
B25: target 2 MT 5'PFS CUC 3'PFS ACA (mixed)
RNA 1: B1 RNA 1
RNA 2: B1 RNA 2 with G27C, G28U, U29C, A53C, G54A
B26: target 2 MT 5'PFS CUC 3'PFS ACC (mixed)
RNA 1: B1 RNA 1
RNA 2: B1 RNA 2 with G27C, G28U, U29C, A53C, G54C
B27: target 2 MT 5'PFS GUA 3'PFS AGG (mixed)
RNA 1: B1 RNA 1
RNA 2: B1 RNA 2 with G28U, U29A, A53G
B28: target 2 MT 5'PFS CGC 3'PFS UAU (mixed)
RNA 1: B1 RNA 1
RNA 2: B1 RNA 2 with G27C, U29C, A52U, G54U
B29: target 2 MT 5'PFS GUA 3'PFS AGC (mixed)
RNA 1: B1 RNA 1
RNA 2: B1 RNA 2 with G28U, U29A, A53G, G54C
B30: target 1 C6G,U19C (mixed)
RNA 1: B8 RNA 1
RNA 2: B8 RNA 2 with U30C, C32A, U33C, C46G
B31: target 2 MT 5'PFS UAU 3'PFS GCA (mixed)
RNA 1: B1 RNA 1
RNA 2: B1 RNA 2 with G27U, G28A, A52G, A53C, G54A
B32: target 2 MT 5'PFS GUA 3'PFS AGA (mixed)
RNA 1: B1 RNA 1
RNA 2: B1 RNA 2 with G28U, U29A, A53G, G54A
B33: target 2 MT 5'PFS CUC 3'PFS ACU (mixed)
RNA 1: B1 RNA 1
RNA 2: B1 RNA 2 with G27C, G28U, U29C, A53C, G54U
B34: target 2 MT 5'PFS ACC 3'PFS CCG (mixed)
RNA 1: B1 RNA 1
RNA 2: B1 RNA 2 with G27A, G28C, U29C, A52C, A53C
B35: target 2 MT 5'PFS GCG 3'PFS UGU (mixed)
RNA 1: B1 RNA 1
RNA 2: B1 RNA 2 with G28C, U29G, A52U, A53G, G54U
B36: target 2 MT 5'PFS CGC 3'PFS UAA (mixed)
RNA 1: B1 RNA 1
RNA 2: B1 RNA 2 with G27C, U29C, A52U, G54A
B37: target 2 MT 5'PFS GUA 3'PFS AGU (mixed)
RNA 1: B1 RNA 1
RNA 2: B1 RNA 2 with G28U, U29A, A53G, G54U
B38: target 2 MT 5'PFS CGC 3'PFS UAC (mixed)
RNA 1: B1 RNA 1
RNA 2: B1 RNA 2 with G27C, U29C, A52U, G54C

The binders below were run against T1, EsCas13d, nuclease-dead (Eubacterium siraeum, UniProt B0MS50, R295A;H300A;R849A;H854A) (assay: crRNA (strand 1, pre-loaded); Mg2+; 40 mM Tris-HCl pH 7.5, 150 mM NaCl, 6 mM MgCl2, 1 mM DTT, 0.1% Tween-20, 0.2 mg/ml BSA; 25 C; 10 min per concentration, then washed). Conditions: tags: His6-TwinStrep-SUMO cleaved; N-terminal SNAP kept (SNAP-Surface 488); label: 3' end held by stalled T7 RNA polymerase.
T1 sequence: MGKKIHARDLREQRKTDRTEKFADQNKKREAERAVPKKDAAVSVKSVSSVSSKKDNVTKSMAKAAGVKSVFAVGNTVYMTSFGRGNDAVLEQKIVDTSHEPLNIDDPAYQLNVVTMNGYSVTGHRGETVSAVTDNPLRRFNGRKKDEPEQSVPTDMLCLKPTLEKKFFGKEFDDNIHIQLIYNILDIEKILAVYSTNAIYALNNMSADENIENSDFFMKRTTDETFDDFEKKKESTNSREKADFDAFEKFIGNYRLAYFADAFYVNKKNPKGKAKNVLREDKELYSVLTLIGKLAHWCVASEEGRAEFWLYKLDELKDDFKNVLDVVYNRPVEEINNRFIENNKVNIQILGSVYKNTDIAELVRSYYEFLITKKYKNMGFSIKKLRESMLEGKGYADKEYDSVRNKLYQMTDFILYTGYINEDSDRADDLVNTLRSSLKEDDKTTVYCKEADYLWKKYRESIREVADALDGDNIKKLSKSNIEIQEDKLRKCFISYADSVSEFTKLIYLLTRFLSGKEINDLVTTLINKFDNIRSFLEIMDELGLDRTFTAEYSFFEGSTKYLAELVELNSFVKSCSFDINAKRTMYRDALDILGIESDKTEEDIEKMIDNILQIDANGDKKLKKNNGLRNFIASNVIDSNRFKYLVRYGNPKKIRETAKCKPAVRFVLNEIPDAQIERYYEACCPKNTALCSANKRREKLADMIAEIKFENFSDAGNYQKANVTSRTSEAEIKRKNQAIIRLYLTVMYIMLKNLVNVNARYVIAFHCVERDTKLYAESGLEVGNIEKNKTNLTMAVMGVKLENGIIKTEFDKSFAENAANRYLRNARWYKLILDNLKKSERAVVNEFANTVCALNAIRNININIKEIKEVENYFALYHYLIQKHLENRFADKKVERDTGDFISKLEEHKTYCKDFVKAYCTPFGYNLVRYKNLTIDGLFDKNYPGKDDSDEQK
B1 gave a Kd of 12.7 ± 1.2 nM. Binder B2 has a Kd of 7.1 ± 1 nM. Binder B3 has a Kd of 5.2 ± 0.7 nM. B4 showed a Kd of 13.4 ± 1.4 nM. In the case of B5, the Kd is reported as 7.6 ± 1.1 nM. In the case of B6, the Kd is reported as 8.5 ± 1.7 nM. Binder B7 has a Kd of 10.5 ± 2.1 nM. For B8, the Kd was 49 ± 6 nM. With B9 the Kd was 4.7 ± 0.9 nM. B10 gave a Kd of 4.1 ± 0.7 nM. B11 gave a Kd of 4.5 ± 0.5 nM. B12 gave a Kd of 4.7 ± 0.9 nM. B13 showed a Kd of 68 ± 33 nM. B14 showed a Kd of 4.1 ± 0.6 nM. B15 showed a Kd of 4.9 ± 0.7 nM. For B16, the Kd was 3.9 ± 0.8 nM. For B17, the Kd was 7.3 ± 1.2 nM. B18 gave a Kd of 4.7 ± 0.6 nM. B19 gave a Kd of 6.9 ± 0.4 nM. B20 gave a Kd of 24 ± 8 nM. With B21 the Kd was 6.5 ± 0.7 nM. In the case of B22, the Kd is reported as 15.3 ± 3.1 nM. B23 was tested, and the Kd was 4.1 ± 0.5 nM. Work on B24 yielded a Kd of 1.68 ± 0.18 nM. B25 gave a Kd of 3.1 ± 1.4 nM. For B26, the Kd was 2.3 ± 0.4 nM. With B27 the Kd was 8.6 ± 0.6 nM. For B28, the Kd was 3.7 ± 0.4 nM. With B29 the Kd was 6.4 ± 0.6 nM. Work on B30 yielded a Kd of 29.8 ± 2.8 nM. Binder B31 has a Kd of roughly 70 nM. B32 gave a Kd of 6.5 ± 0.8 nM. B33 gave a Kd of 2.14 ± 0.28 nM. For B34, the Kd was 12 ± 5 nM. In the case of B35, the Kd is reported as 17.4 ± 2.1 nM. B36 showed a Kd of 3.9 ± 0.6 nM. B37 gave a Kd of 12.4 ± 1.4 nM. Work on B38 yielded a Kd of 6.3 ± 0.8 nM.
